The target of the data set is Prdm4-ZFD (UniProt Q80V63 582-760). Kind of data set: EMSA; EMSA as previously described (ref 41); 0.8% agarose gels for nuclear complexes, 5% acrylamide for purified His-tagged Prdm4; buffer, salt, pH and temperature not given. To be noted: protein: recombinant; tags: His-HA; 5' overhang 2 nt (GG) on each strand. In general terms: A gel shift assay detects complexes by their altered migration in electrophoresis.
Chain of Prdm4-ZFD (Q80V63 582-760): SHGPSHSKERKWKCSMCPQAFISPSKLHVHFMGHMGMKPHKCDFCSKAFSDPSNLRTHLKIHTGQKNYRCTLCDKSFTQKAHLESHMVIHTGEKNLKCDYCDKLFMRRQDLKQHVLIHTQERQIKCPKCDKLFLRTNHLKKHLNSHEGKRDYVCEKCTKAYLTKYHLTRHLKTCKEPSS

B1: wild-type Bahcc1 (dsDNA)
DNA 1: GGCCTGGGTCGGCCCGCGGGGATCCTGGAAACCGTCCCCGGTTTATCTCCTT
DNA 2: GGAAGGAGATAAACCGGGGACGGTTTCCAGGATCCCCGCGGGCCGACCCAGG
B1: the binding result is “binds”.

B2: ΔGAAAC Bahcc1 (dsDNA)
DNA 1: GGCCTGGGTCGGCCCGCGGGGATCCTGTCCCACGTCCCCGGTTTATCTCCTT
DNA 2: GGAAGGAGATAAACCGGGGACGTGGGACAGGATCCCCGCGGGCCGACCCAGG
B2: the binding result is “no binding”.

The values are drawn from paper PMC3811882, “The PR/SET Domain Zinc Finger Protein Prdm4 Regulates Gene Expression in Embryonic Stem Cells but Plays a Nonessential Role in the Developing Mouse Embryo”.
